In patent US12565520B2, “Chemically-stabilized allosteric modulators of leucine-rich repeat kinase 2 (LRRK2)” (UNIVERSITY OF GEORGIA RESEARCH FOUNDATION, INC., priority 2020, dated 2026):
Each block holds one binder with its values, some of them ahead of it. Positions of bridges follow the written chain, without caps; N, C: chain ends. Non-standard residues stand in square brackets, D forms with d. Primed or numbered codes have the meaning given here. PEG3″ = N-terminal PEG3 linker; FAM″ = 5,6-carboxyfluorescein; S5 = C=CCCC[C@](C)(N)C(=O)O; Nle = CCCC[C@H](N)C(=O)O

What was measured:
MBP-tagged CORB [1] = molecular target: T1, MBP-tagged CORB (human, UniProt Q5S007 1672-1840); assay: fluorescence polarization, 10 nM FAM-labeled peptide
T1 construct: range 1672-1840; Purified from E. coli BL21(DE3); also called C-terminal part of the COR domain; His6-MBP-tagged COR-B; not shown: N-terminal His6-MBP tag (pDEST-566)

MBP-tagged CORB [2] = molecular target: T1, MBP-tagged CORB; assay: fluorescence polarization, 10 nM FAM-labeled peptide, MBP-CORB titrated
Procedure: Fluorescence Polarization (FP) Assays. […] Each FAM-labeled peptide was plated at a final in-well concentration of 10 nM in 384-well microtiter plates. 1:2 dilutions of the protein were then performed from a concentration range of 5 μM to 1 nM. For each peptide: protein interaction, a range of at least 10 protein concentrations was examined, and each concentration was performed in triplicate. The assay was performed in FP buffer (20 mM MOPS pH 7, 150 mM NaCl, and 0.005% CHAPS) at room temperature. The peptide:protein mixture was incubated at room temperature for 2 hours with readings taken every 30 minutes. The final readings were obtained at 2 hours.
The binding affinities of these two peptides towards LRRK2 was measured using fluorescence polarization (FP). Two MBP-tagged protein constructs, CORB and RocCOR, were purified and plated in concentrations ranging from 5 μM to 1 nM along with 10 nM FAM-labeled peptide, 2 mM GTP and 10 mM MgCl_2.

[3] = molecular target: T2, MBP-tagged RocCOR LRRK2 protein (human, UniProt Q5S007 1293-1840, limits assumed); assay: fluorescence polarization, 10 nM FAM-labeled peptide
T2 construct: domain: RocCOR; Purified from E. coli; FP done in the presence of GTP and MgCl2; also called His6-MBP-tagged RocCOR; not shown: N-terminal His6-MBP tag
T2 sequence (looked up): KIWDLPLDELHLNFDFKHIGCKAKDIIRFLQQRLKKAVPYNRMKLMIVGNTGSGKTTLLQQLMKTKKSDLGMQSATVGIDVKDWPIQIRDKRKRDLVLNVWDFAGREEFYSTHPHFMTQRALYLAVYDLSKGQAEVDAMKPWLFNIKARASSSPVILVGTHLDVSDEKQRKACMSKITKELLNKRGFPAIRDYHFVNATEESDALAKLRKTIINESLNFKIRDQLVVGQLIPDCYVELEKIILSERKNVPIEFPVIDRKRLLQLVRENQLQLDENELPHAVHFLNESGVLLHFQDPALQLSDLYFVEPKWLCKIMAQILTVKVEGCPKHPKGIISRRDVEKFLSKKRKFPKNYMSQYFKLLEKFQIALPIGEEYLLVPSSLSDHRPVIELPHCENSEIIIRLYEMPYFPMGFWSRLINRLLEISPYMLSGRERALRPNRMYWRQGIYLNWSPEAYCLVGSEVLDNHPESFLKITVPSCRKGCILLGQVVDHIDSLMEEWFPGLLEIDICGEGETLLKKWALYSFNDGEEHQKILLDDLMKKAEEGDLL

B1: FAM-labeled LCIP1 scramble (peptide)
peptide: {FAM″-PEG3″}-GKWEK[S5]GEL[S5]KL-NH2
modifications: staple 6-10
notes: Scrambled control of LCIP1; also called scrambled peptide control
binding result (MBP-tagged CORB [1]): no binding (tested: protein 5 µM to 1 nM)

Kd (MBP-tagged CORB [2]): 1000 nM
B2: FAM-labeled LCIP1 (peptide)
peptide: {FAM″-PEG3″}-KGEGE[S5]LLK[S5]WK-NH2
modifications: staple 6-10
notes: 16

B3: FAM-labeled LRIP4 scramble (peptide)
peptide: {FAM″-PEG3″}-Q[Nle]DKAESKNKERKLC[S5]TIK[S5]-NH2
modifications: staple 16-20
notes: Scrambled control of LRIP4; also called scrambled peptide control
binding result [3]: no binding (tested: protein 5 µM to 1 nM)
